From patent publication US9618524B2, “Method, composition, isolation and identification of a plaque particle and related biomarker” (Plaxgen Inc., priority 2012, dated 2017)

B1: Junction plakoglobin (protein)
chain: MEVMNLMEQPIKVTEWQQTYTYDSGIHSGANTCVPSVSSKGIMEEDEACGRQYTLKKTTTYTQGVPPSQGDLEYQMSTTARAKRVREAMCPGVSGEDSSLLLATQVEGQATNLQRLAEPSQLLKSAIVHLINYQDDAELATRALPELTKLLNDEDPVVVTKAAMIVNQLSKKEASRRALMGSPQLVAAVVRTMQNTSDLDTARCTTSILHNLSHHREGLLAIFKSGGIPALVRMLSSPVESVLFYAITTLHNLLLYQEGAKMAVRLADGLQKMVPLLNKNNPKFLAITTDCLQLLAYGNQESKLIILANGGPQALVQIMRNYSYEKLLWTTSRVLKVLSVCPSNKPAIVEAGGMQALGKHLTSNSPRLVQNCLWTLRNLSDVATKQEGLESVLKILVNQLSVDDVNVLTCATGTLSNLTCNNSKNKTLVTQNSGVEALIHAILRAGDKDDITEPAVCALRHLTSRHPEAEMAQNSVRLNYGIPAIVKLLNQPNQWPLVKATIGLIRNLALCPANHAPLQEAAVIPRLVQLLVKAHQDAQRHVAAGTQQPYTDGVRMEEIVEGCTGALHILARDPMNRMEIFRLNTIPLFVQLLYSSVENIQRVAAGVLCELAQDKEAADAIDAEGASAPLMELLHSRNEGTATYAAAVLFRISEDKNPDYRKRVSVELTNSLFKHDPAAWEAAQSMIPINEPYGDDMDATYRPMYSSDVPLDPLEMHMDMDGDYPIDTYSDGLRPPYPTADHMLA
B2: Isoform B of Fibulin-1 (protein)
chain: DVLLEACCADGHRMATHQKDCSLPYATESKECRMVQEQCCHSQLEELHCATGISLANEQDRCATPHGDNASLEATFVKRCCHCCLLGRAAQAQGQSCEYSLMVGYQCGQVFQACCVKSQETGDLDVGGLQETDKIIEVEEEQEDPYLNDRCRGGGPCKQQCRDTGDEVVCSCFVGYQLLSDGVSCEDVNECITGSHSCRLGESCINTVGSFRCQRDSSCGTGYELTEDNSCKDIDECESGIHNCLPDFICQNTLGSFRCRPKLQCKSGFIQDALGNCIDINECLSISAPCPIGHTCINTEGSYTCQKNVPNCGRGYHLNEEGTRCVDVDECAPPAEPCGKGHRCVNSPGSFRCECKTGYYFDGISRMCVDVNECQRYPGRLCGHKCENTLGSYLCSCSVGFRLSVDGRSCEDINECSSSPCSQECANVYGSYQCYCRRGYQLSDVDGVTCEDIDECALPTGGHICSYRCINIPGSFQCSCPSSGYRLAPNGRNCQDIDECVTGIHNCSINETCFNIQGGFRCLAFECPENYRRSAATQKSKKGRQNTPAGSSKEDCRVLPWKQGLEDTHLDA
B3: Ig heavy chain V-III region WEA (protein)
chain: EVQLVESGGGLVQPGGSLRLSCAASGFTFSSYEMNWVRQAPGKGLEWVSYISSSGSTIYYADSVKGRFTISRDNAKNSLYLQMNSLRAEDTAVYYCAR

tested on: High Density cholesterol (Chl Large) plaque particles; assay: Mass spectroscopy proteomics, semi-quantitative binding affinity of serum proteins (plaqueproteome, Table 2); design: species or system human; conditions: higher number = stronger affinity
Method in brief: (§1)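 Serum or plasma from atherosclerotic subjects, diluted to 50% in PBS, was incubated with cholesterol aggregates (30 μg per 1 mL reaction) at 37° C for 1 hr. Small and large cholesterol plaque particles were sorted by flow cytometry gating, trypsin-digested and analysed by MS/MS against a human UniProt database.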

Row | Molecule | Semi-quantitative analysis of proteins binding to different plaque particles: Chl Large
1 | B1 | 0
2 | B2 | 3
3 | B3 | 1

tested on: Low density cholesterol (Chl small) plaque particles; assay: as above; design: species or system human; conditions: higher number = stronger affinity
Method in brief: as §1

Row | Molecule | Semi-quantitative analysis of proteins binding to different plaque particles: Chl small
4 | B1 | 0
5 | B2 | 3
6 | B3 | 1

biological target: T1, Abeta-42 plaque particles (Homo sapiens, UniProt P05067); assay: as above; conditions: higher number = stronger affinity
T1 construct: Abeta 1-42
Method in brief: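 AD patient serum or plasma (50% in PBS) was incubated with Abeta-42 aggregates (30 μg) for 1 h at 37 °C, then stained with Thioflavin S for 30 min. Labeled particles were FACS-sorted, trypsin/Lys-C digested overnight and analyzed by MS/MS. Sequest searched human UniProt; Scaffold/Protein Prophet validated the identifications.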

Row | Molecule | Semi-quantitative analysis of proteins binding to different plaque particles: Abeta-42
7 | B1 | 2
8 | B2 | 0
9 | B3 | 2

biological target: T2, alpha-synuclein plaque particles (Homo sapiens, UniProt P37840); assay: as above; conditions: higher number = stronger affinity
T2 construct: 140 amino acids polypeptide
Method in brief: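 AD-subject plasma or serum (800 μL of 50%) mixed with 30 μg preformed alpha-synuclein aggregates for 1 h at 37 °C; Thioflavin S-positive particles isolated by flow sorting. After reduction, acrylamide alkylation and overnight tryptic digestion, serum proteins identified by MS/MS with Sequest and Scaffold.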

Row | Molecule | Semi-quantitative analysis of proteins binding to different plaque particles: Synuclein
10 | B1 | 0
11 | B2 | 1
12 | B3 | 1

tested on: Tau plaque particles; assay: as above; design: species or system human; conditions: higher number = stronger affinity
Method in brief: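 Serum or plasma proteins captured on Thioflavin S-labelled Tau plaque particles (Tau-74, Tau-275 oligomers preformed in PBS at 37° C for 2 h; 1 h co-incubation at 37° C) were isolated by FACS sorting, then tryptically digested and identified by MS/MS (Sequest, human UniProt, strict trypsin).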

Row | Molecule | Semi-quantitative analysis of proteins binding to different plaque particles: Tau
13 | B1 | 0
14 | B2 | 0
15 | B3 | 1
